# Results taken from PMC9959916, “A Highly Conserved Region in BRCA2 Suppresses the RAD51-Interaction Activity of BRC Repeats” (Veterinary Sciences, 2023).
# Where a chain is given by its changes, count along the chain named.
# B1: Gal4 DNA-binding domain-fused cBRC1-HCR-BRC2 (canine BRCA2 993–1248 aa) [canine (Canis lupus familiaris)] / VP16-fused canine RAD51 [canine] (parent complex)
# chain 1: PISNHSFENGFKTASNKEIKLSENNIRKSKMLFKDIEEHYPTNLACLEIVNTSSLESQKKPSKSHALDPQSINIISGFVQNSTYVSDSESGHTAPPTLSLKQDFDSNRNLTPSQKAEITELSTILEESGSQFEFTQFRKPSHIIQKNPFEMPENQLTILNSTSKEWKDDDLHLTTNAPSISQVDSKKSEGIIGGKQKFACLSRTSCNRSASGYSTDKNEVEFRGFYSARGTKLNVGSEALQKAKKLFSDLENINEE
# chain 2: MAMQMQLEANADTSVEEESFGPQPISRLEQCGINANDVKKLEEAGFHTVEAVAYAPKKELISIKGISEAKADKILTEAAKLVPMGFTTATEFHQRRSEIIQITTGSKELDKLLQGGIETGSITEMFGEFRTGKTQICHTLAVTCQLPIDRGGGEGKAMYIDTEGTFRPERLLAVAERYGLSGSDVLDNVAYARGFNTDHQTQLLYQASAMMVESRYALLIVDSATALYRTDYSGRGELSARQMHLARFLRMLLRLADEFGVAVVITNQVVAQVDGAAMFAADPKKPIGGNIIAHASTTRLYLRKGRGETRICKIYDSPCLPEAEAMFAINADGVGDAKD
# B2: FLAG-HA-NLS-fused cBRC1-HCR-BRC2 (canine BRCA2 993–1248 aa) [canine (Canis lupus familiaris)] / endogenous RAD51 (HeLa cells) [human (endogenous in HeLa)] (parent complex)
# chain 1: B1 chain 1
# chain 2: B1 chain 2 with S62N, T76A, G194A
# Variants of: B1
# Assay: mammalian two-hybrid assay; n = 4; parent: 3.1; read off a plot
row,response [Firefly/Renilla],Variant
1,~2.6,chain 1 S122P
2,~2,chain 1 T123P
3,~3.3,chain 1 I118M

# Variants of: B2
# Assay: co-immunoprecipitation (anti-FLAG IP, Western blot quantification); lysates from HeLa cells stably expressing the FLAG-HA-NLS-fused peptide; parent: 1
row,ratio to parent,Variant
1,0.57,chain 1 T123P
2,0.52,chain 1 S122P
3,0.92,chain 1 I118M
